According to paper PMC12139101, “DNA G-quadruplex structures act as functional elements in α- and β-globin enhancers”:

Columns and labels:
[1] = molecular target: T1, POLR2G (human, UniProt P62487 1-172); assay: ELISA; apparent Kd; 100 mM K+; ELISA: oligos folded in Tris-HCl pH 7.4, 100 mM KCl; ELISA buffer 100 mM KCl, 50 mM KH2PO4 pH 7.4, 3% BSA block, 1 h (room temperature stated for coating and bl)
[2] = molecular target: T1, POLR2G; assay: ELISA; no detectable binding, up to 200 nM; 100 mM K+; ELISA: oligos folded in Tris-HCl pH 7.4, 100 mM KCl; ELISA buffer 100 mM KCl, 50 mM KH2PO4 pH 7.4, 3% BSA block, 1 h (room temperature stated for coating and bl)

TGGGGGTGGAGGTGGGACAAGGGAAAGGGGTGA (structured_DNA) [HS-40_G4_aWT] was tested. Which Kd [1] did it give?
The Kd was 52.8 nM.

With CCAGAAGCGGGGGTGGGGCACTGACCCCGACAGGGGCCT (structured_DNA) [HS2_G4_WT (bWT)] as the binder, how does the Kd [1] read?
The Kd was 48.3 nM.

Does CCATAATGCCAAGCTTGAGCACTGATTCCGACACTAGACCT (ssDNA) [HS2_G4_bMut] bind [2]?
Result: no binding

Does TGTGTGTGGATGTGTGACAAGTGAAATGTGTGA (ssDNA) [HS-40_G4_aMut] bind [2]?
Result: no binding
